Experimental data taken from patent US20240228980A1.

Target: PB1 (influenza A/WSN/1933 polymerase subunit) (influenza A virus A/WSN/1933) (UniProt P03430)
Assay: cell-based or functional assay

PB1 (influenza A/WSN/1933 polymerase subunit) (influenza A virus A/WSN/1933), sequence (P03430 whole entry): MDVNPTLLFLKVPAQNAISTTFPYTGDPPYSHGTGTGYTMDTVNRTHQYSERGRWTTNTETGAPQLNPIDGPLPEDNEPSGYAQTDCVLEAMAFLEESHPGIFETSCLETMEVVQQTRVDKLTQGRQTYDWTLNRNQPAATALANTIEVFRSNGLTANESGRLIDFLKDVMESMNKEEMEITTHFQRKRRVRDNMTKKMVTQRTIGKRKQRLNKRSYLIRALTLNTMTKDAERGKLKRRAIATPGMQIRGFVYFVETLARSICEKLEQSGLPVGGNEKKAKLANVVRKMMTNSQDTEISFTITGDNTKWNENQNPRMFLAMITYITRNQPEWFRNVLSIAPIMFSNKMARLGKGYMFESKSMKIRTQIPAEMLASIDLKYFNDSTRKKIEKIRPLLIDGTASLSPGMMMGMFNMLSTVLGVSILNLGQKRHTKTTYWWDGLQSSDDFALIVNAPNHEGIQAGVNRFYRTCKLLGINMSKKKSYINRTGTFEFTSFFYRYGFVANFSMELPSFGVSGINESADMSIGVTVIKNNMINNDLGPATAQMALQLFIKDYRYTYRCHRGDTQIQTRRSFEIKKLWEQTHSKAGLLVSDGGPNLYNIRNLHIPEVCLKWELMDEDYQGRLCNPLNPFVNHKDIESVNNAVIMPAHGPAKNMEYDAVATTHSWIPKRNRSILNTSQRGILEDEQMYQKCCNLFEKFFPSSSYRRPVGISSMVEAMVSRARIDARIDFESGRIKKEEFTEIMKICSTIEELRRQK

| Substance | virus titers [%] |
| --- | --- |
| PB2 195/2223 DPR | 50 |
| PB2 416/2189 DPR (from UniProt P03427 1-131) | 50 |
